Assay results: paper PMC9482650, “Quantitative fragmentomics allow affinity mapping of interactomes” (Nature Communications, 2022)
Where a chain is given by its changes, count along the chain named.

T1: GRIP1_4, Q9Y3R0
T1 sequence (Q9Y3R0 467-571, limits assumed, looked up): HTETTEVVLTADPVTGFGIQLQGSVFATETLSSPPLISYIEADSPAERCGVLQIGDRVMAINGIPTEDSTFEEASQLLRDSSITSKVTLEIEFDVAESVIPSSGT

T2: PDZRN3_1, Q9UPQ7
T2 sequence (Q9UPQ7 244-349, limits assumed, looked up): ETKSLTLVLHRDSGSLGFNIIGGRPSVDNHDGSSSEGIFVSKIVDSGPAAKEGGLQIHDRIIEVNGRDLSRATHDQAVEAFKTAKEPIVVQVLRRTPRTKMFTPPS

T3: LIN7B, Q9HAP6
T3 sequence (Q9HAP6 88-185, limits assumed, looked up): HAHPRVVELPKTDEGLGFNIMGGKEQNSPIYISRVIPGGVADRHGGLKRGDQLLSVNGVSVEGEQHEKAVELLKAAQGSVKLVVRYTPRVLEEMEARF

T4: DFNB31_3, Q9P202
T4 sequence (Q9P202 811-907, limits assumed, looked up): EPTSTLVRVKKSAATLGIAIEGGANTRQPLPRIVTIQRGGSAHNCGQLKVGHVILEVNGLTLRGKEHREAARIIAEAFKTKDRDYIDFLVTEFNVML

T5: SNTA1, Q13424
T5 sequence (Q13424 82-180, limits assumed, looked up): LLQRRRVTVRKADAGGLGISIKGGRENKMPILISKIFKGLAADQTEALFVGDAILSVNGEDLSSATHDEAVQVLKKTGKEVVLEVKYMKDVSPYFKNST

T6: HTRA3, P83110
T6 sequence (P83110 354-453, limits assumed, looked up): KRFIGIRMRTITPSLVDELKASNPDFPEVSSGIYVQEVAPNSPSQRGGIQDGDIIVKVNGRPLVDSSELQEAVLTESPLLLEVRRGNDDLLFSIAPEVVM

T7: GRIP1_3, Q9Y3R0
T7 sequence (Q9Y3R0 247-346, limits assumed, looked up): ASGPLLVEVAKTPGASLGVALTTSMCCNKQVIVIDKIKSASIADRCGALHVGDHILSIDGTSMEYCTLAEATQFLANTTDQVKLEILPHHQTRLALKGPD

T8: MPP7, Q5T2T1
T8 sequence (Q5T2T1 134-230, limits assumed, looked up): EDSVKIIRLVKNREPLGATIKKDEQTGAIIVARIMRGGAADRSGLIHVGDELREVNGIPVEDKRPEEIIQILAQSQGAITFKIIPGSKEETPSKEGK

T9: DLG3_3, Q92796
T9 sequence (Q92796 374-475, limits assumed, looked up): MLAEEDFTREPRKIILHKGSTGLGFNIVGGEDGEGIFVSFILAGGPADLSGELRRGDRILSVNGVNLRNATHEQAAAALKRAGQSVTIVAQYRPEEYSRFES

T10: ARHGEF11, O15085
T10 sequence (O15085 42-136, limits assumed, looked up): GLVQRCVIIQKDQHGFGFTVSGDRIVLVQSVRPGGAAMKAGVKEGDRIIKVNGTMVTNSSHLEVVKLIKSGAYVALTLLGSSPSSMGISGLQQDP

T11: DFNB31_1, Q9P202
T11 sequence (Q9P202 135-233, limits assumed, looked up): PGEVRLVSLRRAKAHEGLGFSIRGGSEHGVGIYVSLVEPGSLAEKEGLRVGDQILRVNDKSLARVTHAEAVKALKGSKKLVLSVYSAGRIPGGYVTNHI

T12: LIN7C, Q9NUP9
T12 sequence (Q9NUP9 88-185, limits assumed, looked up): T3 sequence (Q9HAP6 88-185, limits assumed, looked up) with A2S, D13E, V35I, V40I, Q65H, S79K, R89K, A96S

T13: SIPA1L2, Q9P2F8
T13 sequence (Q9P2F8 945-1036, limits assumed, looked up): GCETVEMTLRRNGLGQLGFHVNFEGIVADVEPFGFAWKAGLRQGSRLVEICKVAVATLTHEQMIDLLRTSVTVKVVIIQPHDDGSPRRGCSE


target: T1, GRIP1_4, Q9Y3R0; assay: holdup assay; parameters: key: below the threshold = too weak to quantify, mostly under pKd 3.1 to 4; settings: plain residues with an end cap or a label only (N-terminal biotin on a linker: ado-ado)

pKd | Binder
below the threshold | VYEVPVETKF [SLC26A3, P40879]
below the threshold | PAALPESTHM [SLC9A3, P48764]

target: GIPC2, Q8TF65; assay: holdup assay; parameters: key: below the threshold = too weak to quantify, mostly under pKd 3.1 to 4; settings: plain residues with an end cap or a label only (N-terminal biotin on a linker: ado-ado)
Sequence (Q8TF65 112-203): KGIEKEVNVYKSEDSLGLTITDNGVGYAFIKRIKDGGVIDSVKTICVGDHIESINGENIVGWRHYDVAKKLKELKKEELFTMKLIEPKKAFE

pKd | Binder
3.53 | VYEVPVETKF [SLC26A3, P40879]
below the threshold | PAALPESTHM [SLC9A3, P48764]

target: T2, PDZRN3_1, Q9UPQ7; assay: holdup assay; parameters: key: below the threshold = too weak to quantify, mostly under pKd 3.1 to 4; settings: plain residues with an end cap or a label only (N-terminal biotin on a linker: ado-ado)

pKd | Binder
below the threshold | VYEVPVETKF [SLC26A3, P40879]
below the threshold | PAALPESTHM [SLC9A3, P48764]

target: T3, LIN7B, Q9HAP6; assay: holdup assay; parameters: key: below the threshold = too weak to quantify, mostly under pKd 3.1 to 4; settings: plain residues with an end cap or a label only (N-terminal biotin on a linker: ado-ado)

pKd | Binder
4.21 | VYEVPVETKF [SLC26A3, P40879]
below the threshold | PAALPESTHM [SLC9A3, P48764]

target: NHERF4_2, Q86UT5; assay: holdup assay; parameters: key: below the threshold = too weak to quantify, mostly under pKd 3.1 to 4; settings: plain residues with an end cap or a label only (N-terminal biotin on a linker: ado-ado)
Sequence (Q86UT5 220-308): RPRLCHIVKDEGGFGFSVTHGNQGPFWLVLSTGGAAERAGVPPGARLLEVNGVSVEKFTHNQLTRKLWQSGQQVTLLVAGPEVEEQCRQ

pKd | Binder
below the threshold | VYEVPVETKF [SLC26A3, P40879]
below the threshold | PAALPESTHM [SLC9A3, P48764]

target: T4, DFNB31_3, Q9P202; assay: holdup assay; parameters: key: below the threshold = too weak to quantify, mostly under pKd 3.1 to 4; settings: plain residues with an end cap or a label only (N-terminal biotin on a linker: ado-ado)

pKd | Binder
3.94 | VYEVPVETKF [SLC26A3, P40879]
below the threshold | PAALPESTHM [SLC9A3, P48764]

target: GORASP1, Q9BQQ3; assay: holdup assay; parameters: key: below the threshold = too weak to quantify, mostly under pKd 3.1 to 4; settings: plain residues with an end cap or a label only (N-terminal biotin on a linker: ado-ado)
Sequence (Q9BQQ3 1-208): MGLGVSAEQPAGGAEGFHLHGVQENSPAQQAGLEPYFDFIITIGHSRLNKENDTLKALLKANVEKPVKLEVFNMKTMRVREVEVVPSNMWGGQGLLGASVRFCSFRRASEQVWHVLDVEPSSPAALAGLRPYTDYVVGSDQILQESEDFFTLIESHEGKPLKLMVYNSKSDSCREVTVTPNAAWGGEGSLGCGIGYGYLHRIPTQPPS

pKd | Binder
below the threshold | VYEVPVETKF [SLC26A3, P40879]
below the threshold | PAALPESTHM [SLC9A3, P48764]

target: T5, SNTA1, Q13424; assay: holdup assay; parameters: key: below the threshold = too weak to quantify, mostly under pKd 3.1 to 4; settings: plain residues with an end cap or a label only (N-terminal biotin on a linker: ado-ado)

pKd | Binder
below the threshold | VYEVPVETKF [SLC26A3, P40879]
below the threshold | PAALPESTHM [SLC9A3, P48764]

target: GORASP2, Q9H8Y8; assay: holdup assay; parameters: key: below the threshold = too weak to quantify, mostly under pKd 3.1 to 4; settings: plain residues with an end cap or a label only (N-terminal biotin on a linker: ado-ado)

pKd | Binder
below the threshold | VYEVPVETKF [SLC26A3, P40879]
below the threshold | PAALPESTHM [SLC9A3, P48764]

target: T6, HTRA3, P83110; assay: holdup assay; parameters: key: below the threshold = too weak to quantify, mostly under pKd 3.1 to 4; settings: plain residues with an end cap or a label only (N-terminal biotin on a linker: ado-ado)

pKd | Binder
below the threshold | VYEVPVETKF [SLC26A3, P40879]
below the threshold | PAALPESTHM [SLC9A3, P48764]

target: CASK, O14936; assay: holdup assay; parameters: key: below the threshold = too weak to quantify, mostly under pKd 3.1 to 4; settings: plain residues with an end cap or a label only (N-terminal biotin on a linker: ado-ado)
Sequence (O14936 487-570): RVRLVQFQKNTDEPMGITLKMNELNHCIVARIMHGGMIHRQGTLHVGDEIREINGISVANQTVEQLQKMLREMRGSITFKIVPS

pKd | Binder
below the threshold | VYEVPVETKF [SLC26A3, P40879]
below the threshold | PAALPESTHM [SLC9A3, P48764]

target: T7, GRIP1_3, Q9Y3R0; assay: holdup assay; parameters: key: below the threshold = too weak to quantify, mostly under pKd 3.1 to 4; settings: plain residues with an end cap or a label only (N-terminal biotin on a linker: ado-ado)

pKd | Binder
below the threshold | VYEVPVETKF [SLC26A3, P40879]
below the threshold | PAALPESTHM [SLC9A3, P48764]

target: T8, MPP7, Q5T2T1; assay: holdup assay; parameters: key: below the threshold = too weak to quantify, mostly under pKd 3.1 to 4; settings: plain residues with an end cap or a label only (N-terminal biotin on a linker: ado-ado)

pKd | Binder
below the threshold | VYEVPVETKF [SLC26A3, P40879]
below the threshold | PAALPESTHM [SLC9A3, P48764]

target: T9, DLG3_3, Q92796; assay: holdup assay; parameters: key: below the threshold = too weak to quantify, mostly under pKd 3.1 to 4; settings: plain residues with an end cap or a label only (N-terminal biotin on a linker: ado-ado)

pKd | Binder
below the threshold | VYEVPVETKF [SLC26A3, P40879]
below the threshold | PAALPESTHM [SLC9A3, P48764]

target: T10, ARHGEF11, O15085; assay: holdup assay; parameters: key: below the threshold = too weak to quantify, mostly under pKd 3.1 to 4; settings: plain residues with an end cap or a label only (N-terminal biotin on a linker: ado-ado)

pKd | Binder
3.62 | VYEVPVETKF [SLC26A3, P40879]
below the threshold | PAALPESTHM [SLC9A3, P48764]

target: T11, DFNB31_1, Q9P202; assay: holdup assay; parameters: key: below the threshold = too weak to quantify, mostly under pKd 3.1 to 4; settings: plain residues with an end cap or a label only (N-terminal biotin on a linker: ado-ado)

pKd | Binder
4.21 | VYEVPVETKF [SLC26A3, P40879]
below the threshold | PAALPESTHM [SLC9A3, P48764]

target: Inadl_2, Q8NI35; assay: holdup assay; parameters: key: below the threshold = too weak to quantify, mostly under pKd 3.1 to 4; settings: plain residues with an end cap or a label only (N-terminal biotin on a linker: ado-ado)
Sequence (Q8NI35 238-335): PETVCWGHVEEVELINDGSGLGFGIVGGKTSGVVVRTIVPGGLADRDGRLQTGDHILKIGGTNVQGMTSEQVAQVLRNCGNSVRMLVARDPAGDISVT

pKd | Binder
below the threshold | VYEVPVETKF [SLC26A3, P40879]
below the threshold | PAALPESTHM [SLC9A3, P48764]

target: GRID2IP_1, A4D2P6; assay: holdup assay; parameters: key: below the threshold = too weak to quantify, mostly under pKd 3.1 to 4; settings: plain residues with an end cap or a label only (N-terminal biotin on a linker: ado-ado)
Sequence (A4D2P6 1-87): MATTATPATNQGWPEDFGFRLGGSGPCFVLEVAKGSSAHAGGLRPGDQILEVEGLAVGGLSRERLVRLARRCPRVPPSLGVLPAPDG

pKd | Binder
below the threshold | VYEVPVETKF [SLC26A3, P40879]
below the threshold | PAALPESTHM [SLC9A3, P48764]

target: MAGI2_4, Q86UL8; assay: holdup assay; parameters: key: below the threshold = too weak to quantify, mostly under pKd 3.1 to 4; settings: plain residues with an end cap or a label only (N-terminal biotin on a linker: ado-ado)
Sequence (Q86UL8 772-865): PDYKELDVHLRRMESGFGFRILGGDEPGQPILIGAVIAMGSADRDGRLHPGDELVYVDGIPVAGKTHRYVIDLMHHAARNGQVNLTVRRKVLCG

pKd | Binder
below the threshold | VYEVPVETKF [SLC26A3, P40879]
below the threshold | PAALPESTHM [SLC9A3, P48764]

target: T12, LIN7C, Q9NUP9; assay: holdup assay; parameters: key: below the threshold = too weak to quantify, mostly under pKd 3.1 to 4; settings: plain residues with an end cap or a label only (N-terminal biotin on a linker: ado-ado)

pKd | Binder
4.01 | VYEVPVETKF [SLC26A3, P40879]
below the threshold | PAALPESTHM [SLC9A3, P48764]

target: FRMPD4, Q14CM0; assay: holdup assay; parameters: key: below the threshold = too weak to quantify, mostly under pKd 3.1 to 4; settings: plain residues with an end cap or a label only (N-terminal biotin on a linker: ado-ado)
Sequence (Q14CM0 67-160): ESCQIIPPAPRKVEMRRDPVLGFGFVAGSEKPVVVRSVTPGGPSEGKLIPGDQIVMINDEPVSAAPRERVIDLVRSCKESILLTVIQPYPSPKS

pKd | Binder
3.65 | VYEVPVETKF [SLC26A3, P40879]
below the threshold | PAALPESTHM [SLC9A3, P48764]

target: GOPC, Q9HD26; assay: holdup assay; parameters: key: below the threshold = too weak to quantify, mostly under pKd 3.1 to 4; settings: plain residues with an end cap or a label only (N-terminal biotin on a linker: ado-ado)

pKd | Binder
below the threshold | VYEVPVETKF [SLC26A3, P40879]
below the threshold | PAALPESTHM [SLC9A3, P48764]

target: T13, SIPA1L2, Q9P2F8; assay: holdup assay; parameters: key: below the threshold = too weak to quantify, mostly under pKd 3.1 to 4; settings: plain residues with an end cap or a label only (N-terminal biotin on a linker: ado-ado)

pKd | Binder
below the threshold | VYEVPVETKF [SLC26A3, P40879]
below the threshold | PAALPESTHM [SLC9A3, P48764]

target: GRIP2_5, Q9C0E4; assay: holdup assay; parameters: key: below the threshold = too weak to quantify, mostly under pKd 3.1 to 4; settings: plain residues with an end cap or a label only (N-terminal biotin on a linker: ado-ado)
Sequence (Q9C0E4 544-642): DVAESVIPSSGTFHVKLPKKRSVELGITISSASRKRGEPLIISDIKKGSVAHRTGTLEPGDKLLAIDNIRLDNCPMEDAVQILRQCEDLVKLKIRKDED

pKd | Binder
below the threshold | VYEVPVETKF [SLC26A3, P40879]
below the threshold | PAALPESTHM [SLC9A3, P48764]

target: DLG4_2, P78352; assay: holdup assay; parameters: key: below the threshold = too weak to quantify, mostly under pKd 3.1 to 4; settings: plain residues with an end cap or a label only (N-terminal biotin on a linker: ado-ado)
Sequence (P78352 155-259): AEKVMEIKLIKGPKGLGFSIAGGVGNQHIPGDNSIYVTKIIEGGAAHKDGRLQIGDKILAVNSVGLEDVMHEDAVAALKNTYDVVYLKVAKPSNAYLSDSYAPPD

pKd | Binder
3.66 | VYEVPVETKF [SLC26A3, P40879]
below the threshold | PAALPESTHM [SLC9A3, P48764]
